Results on 7 molecules are retold here after publication PMC4528719, “Functional role of dimerization and CP190 interacting domains of CTCF protein in Drosophila melanogaster” (BMC Biology, 2015).

Data set [1] concerns the target T1, thioredoxin-tagged CP190-BTB (Drosophila).
T1 sequence (Q24478 whole entry, looked up): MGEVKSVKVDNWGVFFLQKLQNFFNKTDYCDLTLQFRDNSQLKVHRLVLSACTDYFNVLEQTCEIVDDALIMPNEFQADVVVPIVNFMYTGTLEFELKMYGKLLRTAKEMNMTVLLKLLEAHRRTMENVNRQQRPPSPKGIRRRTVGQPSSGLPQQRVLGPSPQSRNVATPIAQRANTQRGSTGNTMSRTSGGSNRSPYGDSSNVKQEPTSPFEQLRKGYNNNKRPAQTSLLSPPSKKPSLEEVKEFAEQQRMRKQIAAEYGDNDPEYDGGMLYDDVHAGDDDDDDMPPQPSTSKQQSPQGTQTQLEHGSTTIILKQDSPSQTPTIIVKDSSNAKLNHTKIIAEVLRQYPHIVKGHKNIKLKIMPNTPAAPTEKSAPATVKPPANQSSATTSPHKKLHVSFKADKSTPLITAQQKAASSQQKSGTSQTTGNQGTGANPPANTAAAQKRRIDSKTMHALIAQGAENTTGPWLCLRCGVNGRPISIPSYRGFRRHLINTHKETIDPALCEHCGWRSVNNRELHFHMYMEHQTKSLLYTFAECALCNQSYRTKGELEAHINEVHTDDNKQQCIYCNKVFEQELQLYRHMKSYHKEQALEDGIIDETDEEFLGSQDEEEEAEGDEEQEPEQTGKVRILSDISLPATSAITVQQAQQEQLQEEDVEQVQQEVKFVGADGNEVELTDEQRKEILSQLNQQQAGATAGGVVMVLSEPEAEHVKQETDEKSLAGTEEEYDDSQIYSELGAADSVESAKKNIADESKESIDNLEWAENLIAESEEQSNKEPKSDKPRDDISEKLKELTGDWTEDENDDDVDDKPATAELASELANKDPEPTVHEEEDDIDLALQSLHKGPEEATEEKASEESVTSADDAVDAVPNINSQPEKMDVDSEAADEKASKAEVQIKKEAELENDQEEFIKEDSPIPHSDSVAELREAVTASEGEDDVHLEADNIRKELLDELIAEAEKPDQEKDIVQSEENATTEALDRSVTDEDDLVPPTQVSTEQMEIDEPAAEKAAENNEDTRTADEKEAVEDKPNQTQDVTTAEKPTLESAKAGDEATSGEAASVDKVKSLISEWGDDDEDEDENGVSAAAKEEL
Nature of the data set: cross-linking; CP190-BTB constant at 20 μM, alone or mixed with CTCF-CTD at stated molar ratios, 2 h (legend of Fig. 4b: 1 h) at room temperature, then glutaraldehyde; buffer B; SDS-PAGE, Coomassie or silver staining.

In data set [2] the target is T2, dCTCF–CTD 612–818 protein (Drosophila melanogaster, UniProt Q9VS55 612-818).
T2 construct: also called CTD protein; source: E. coli BL21, purified (Ni-NTA)
T2 sequence (looked up): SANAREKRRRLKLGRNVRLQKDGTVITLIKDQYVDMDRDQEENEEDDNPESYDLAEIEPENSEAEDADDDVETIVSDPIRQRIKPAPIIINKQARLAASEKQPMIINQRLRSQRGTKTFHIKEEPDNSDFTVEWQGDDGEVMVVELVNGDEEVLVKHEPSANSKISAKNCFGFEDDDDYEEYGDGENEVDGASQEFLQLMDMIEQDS
Nature of the data set: pull-down; GST–CP190 fragments on glutathione agarose, recombinant dCTCF-CTD in solution; 2 h room temperature, buffer C; washes with 500 mM NaCl (Fig. 3f). The note with it: both partners purified.

Data set [3] deals with the molecule itself. Nature of the data set: cross-linking; one protein alone at 5 μM, increasing glutaraldehyde, 10 min at room temperature, 20 mM HEPES-KOH pH 7.7, 150 mM NaCl, 20 mM imidazole, 1 mM β-mercaptoethanol; SDS-PAGE, silver staining.

As a reminder, the stoichiometry N is a count of units in the complex or per binding partner. For the molecule “thioredoxin-tagged CP190-BTB (domain or fragment)”, in data set [1], the stoichiometry N was found to be 2.

B1: GST–CP190 BTB domain (1–126) (domain or fragment, Drosophila, UniProt Q24478 1-126, looked up)
chain: MGEVKSVKVDNWGVFFLQKLQNFFNKTDYCDLTLQFRDNSQLKVHRLVLSACTDYFNVLEQTCEIVDDALIMPNEFQADVVVPIVNFMYTGTLEFELKMYGKLLRTAKEMNMTVLLKLLEAHRRTM
With B1, the binding result in data set [2] is “binds”.

B2: dCTCF NTD 125–180 (domain or fragment, Drosophila melanogaster, UniProt Q9VS55 125-180, looked up)
chain: STATNKSINLRPAKSTPKATTSKPPPEPKAISVRPARAAAAKAKQSAMPPPPALVV
notes: dCTCF, Drosophila melanogaster, residues 125-180; source: E. coli BL21, purified (Ni-NTA)
On to B2, for which the binding result in data set [3] is listed as “binds”.

B3: dCTCF–CTD 612–818 protein (domain or fragment)
chain: SANAREKRRRLKLGRNVRLQKDGTVITLIKDQYVDMDRDQEENEEDDNPESYDLAEIEPENSEAEDADDDVETIVSDPIRQRIKPAPIIINKQARLAASEKQPMIINQRLRSQRGTKTFHIKEEPDNSDFTVEWQGDDGEVMVVELVNGDEEVLVKHEPSANSKISAKNCFGFEDDDDYEEYGDGENEVDGASQEFLQLMDMIEQDS
On to B3, for which, in data set [1], the stoichiometry N amounted to 2 BTB per CTD.

B4: thioredoxin NTD 1–205 fusion protein of dCTCF (domain or fragment, Drosophila melanogaster, UniProt Q9VS55 1-205, looked up)
chain: MPRRTKKDEDPEDLQTFLNNFHKEIEGNSDEKVVNTILEAISAEAIDLDENGAEAGGSKPMEEAEADLDHAEEAEEEEEDDEDKYFIDDEGNCYIKTTPKKQKELQKKLKQAAAKPGKATRSVVSTATNKSINLRPAKSTPKATTSKPPPEPKAISVRPARAAAAKAKQSAMPPPPALVVKVPAPRGRPRKNPVIPKPEPMDLER
notes: pET32a(+) vector; purified on Ni-NTA, so a His tag is likely present; source: E. coli BL21, purified (Ni-NTA)
For the molecule B4, the binding result in data set [3] was “binds”.

B5: dCTCF NTD 70–163 (domain or fragment, Drosophila melanogaster, UniProt Q9VS55 70-163, looked up)
chain: HAEEAEEEEEDDEDKYFIDDEGNCYIKTTPKKQKELQKKLKQAAAKPGKATRSVVSTATNKSINLRPAKSTPKATTSKPPPEPKAISVRPARAA
notes: dCTCF, Drosophila melanogaster, residues 70-163; source: E. coli BL21, purified (Ni-NTA)
For the molecule B5, the binding result in data set [3] is reported as “binds”.

B6: thioredoxin-tagged dCTCF NTD 1–163 (domain or fragment, Drosophila melanogaster, UniProt Q9VS55 1-163, looked up)
chain: MPRRTKKDEDPEDLQTFLNNFHKEIEGNSDEKVVNTILEAISAEAIDLDENGAEAGGSKPMEEAEADLDHAEEAEEEEEDDEDKYFIDDEGNCYIKTTPKKQKELQKKLKQAAAKPGKATRSVVSTATNKSINLRPAKSTPKATTSKPPPEPKAISVRPARAA
notes: dCTCF, Drosophila melanogaster, residues 1-163; pET32a(+) vector; purified on Ni-NTA, so a His tag is likely present; source: E. coli BL21, purified (Ni-NTA)
As to B6, the “stoichiometry N” value in data set [3] is about 4.
